Biological target: histone H3 trimethylated at lysine 9 (H3K9me3) in native chromatin of Caki-1 cells (UniProt P68431)

Row | Substance | Ec: global enrichment of the ATAC-seq tagmentation signal over H3K9me3-marked regions, log2(ratio) over genomic Input, Caki-1 [Continued) e] | Mc: modal enrichment of the ATAC-seq tagmentation signal over H3K9me3-marked regions, log2(ratio) over genomic Input, Caki-1 [Continued) e] | stated: no tagmentation signal over H3K9me3 ChIP-seq domains (ATAC-seq on permeabilized Caki-1 nuclei) | stated: tagmentation signal over H3K9me3 ChIP-seq domains (ATAC-seq on permeabilized Caki-1 nuclei) | tagmentation of native chromatin on permeabilized nuclei (ATAC-seq) | Ec: global enrichment of the ATAC-seq tagmentation signal over H3K9me3-marked regions, log2(ratio) over genomic Input, Caki-1; subscript printed as 0, first E line of the box | GET-seq, sequential Tn5 then TnH tagmentation, compared with ChIP-seq profiles | Mc: modal enrichment of the ATAC-seq tagmentation signal over H3K9me3-marked regions, log2(ratio) over genomic Input, Caki-1; subscript printed as 0, first M line of the box, agrees with the mode of t | TnH ATAC-seq compared with H3K9me3 and H3K4me3 ChIP-seq | enrichment of tagmentation signal over H3K9me3-marked regions, compared among TnH #1-4 | scGET-seq pseudobulk compared with H3K9me3 and H3K4me3 ChIP-seq | stated: tagmentation profile follows the H3K9me3 ChIP-seq profile (ATAC-seq, Caki-1) | stated: tagmentation profile follows the H3K9me3 ChIP-seq profile (bulk ATAC-seq with TnH alone and scGET-seq pseudo-bulk, Caki-1) [Continued) g]
1 | Nextera | Ec= -3.16 | Mc= -0.89 | Nextera track (scale 0-9.3): near zero over the H3K9me3 domain at about 42.4-43.4 Mbp and only small spikes at about 43.8-44.6 Mbp of Chr. 19; peaks where the H3K4me3 track has peaks | – | – | – | – | – | – | – | – | – | –
2 | TnH #1: 93aaCD (HP1α)-3×(TGS)-Tn5 | Ec= 0.01 | Mc= 0.19 | – | TnH#1 track (scale 0-6.6): continuous raised signal over the H3K9me3 domain at about 42.4-43.4 Mbp of Chr. 19, where the Tn5 and Nextera tracks are near zero, and lower continuous signal at about 43.8-44.6 Mbp; also sharp peaks at H3K4me3 positions | hybrid Tn5 constructs indeed cut and inserted oligos in regions enriched for H3K9me3 | – | – | – | – | – | – | – | –
3 | TnH #2: 93aaCD (HP1α)-5×(TGS)-Tn5 | Ec= -0.41 | Mc= 0.07 | – | TnH#2 track (scale 0-7.7): signal above baseline over the H3K9me3 domain at about 42.4-43.4 Mbp of Chr. 19, where the Tn5 and Nextera tracks are near zero; the sharp peaks at H3K4me3 positions stand out more than in TnH#3 and TnH#1 | hybrid Tn5 constructs indeed cut and inserted oligos in regions enriched for H3K9me3 | – | – | – | – | – | – | – | –
4 | TnH #3: 112aaCD (HP1α)-3×(TGS)-Tn5 | Ec= 0.25 | Mc= 0.31 | – | TnH#3 track (scale 0-8.0): continuous raised signal over the H3K9me3 domain at about 42.4-43.4 Mbp of Chr. 19, where the Tn5 and Nextera tracks are near zero, and lower continuous signal at about 43.8-44.6 Mbp; also sharp peaks at H3K4me3 positions (e.g. about 45.5 Mbp) | hybrid Tn5 constructs indeed cut and inserted oligos in regions enriched for H3K9me3 | E0= 0.25 | TnH mimicked more closely H3K9me3 data, and to a lesser extent H3K4me3 | M0= 0.31 | TnH captures both H3K4me3- and H3K9me3-enriched regions, unlike Tn5 which closely matches H3K4me3 profiles | We identified the construct TnH #3, from now on TnH, as the most efficient | TnH was able to target regions positive for H3K9me3 as well as H3K4me3 | TnH track (scale 0-15): broad raised signal where the H3K9me3 track has its domains, highest at about 54.5-55.7 Mbp and raised at about 59-62.5 Mbp of Chr.12, where the Tn5 track is near zero; Input (scale 0-10) flat near 0 | tnH track (scale 0-15): broad raised signal of about half the scale or more at about 33-35, 36.3-37.5 and 38.0-38.9 Mbp of chr1, over the H3K9me3 domains; tnH pseudobulk track (scale 0-15): the same three domains raised, somewhat lower; both also show small peaks at H3K4me3 positions; Input (scale 0
5 | TnH #4: 112aaCD (HP1α)-5×(TGS)-Tn5 | Ec= -0.55 | Mc= 0.07 | – | TnH#4 track (scale 0-2.7): signal above baseline over the H3K9me3 domain at about 42.4-43.4 Mbp of Chr. 19, where the Tn5 and Nextera tracks are near zero; the sharp peaks at H3K4me3 positions stand out more than in TnH#3 and TnH#1 | hybrid Tn5 constructs indeed cut and inserted oligos in regions enriched for H3K9me3 | – | – | – | – | – | – | – | –

From patent US20240425848
